Reference: article PMC9848473 (2023)
One block for each binder: values may come before it.

Experiments:
Assay in all cases: ITC
[1] = target: DarB^E34R (Bacillus subtilis, UniProt O31698 1-147, E34R)
[2] = target: DarB E74G/R75G (Bacillus subtilis, UniProt O31698 1-147, E74G | R75G)
[3] = target: RelBs^NTD Y279A (Bacillus subtilis)
[4] = target: RelBs^NTD K290G (Bacillus subtilis)

Kd [1]: 10.6 µM
Kd [2]: 8.9 µM
B1: Bacillus subtilis Rel N-terminal domain region (RelBs^NTD; residues 1 to 373) (domain or fragment)
chain: not shown

Kd [3]: 45.1 µM
Kd [4]: 4 µM
B2: Bacillus subtilis DarB (natural protein)
chain: MISLQSDQLLEATVGQFMIEADKVAHVQVGNNLEHALLVLTKTGYTAIPVLDPSYRLHGLIGTNMIMNSIFGLERIEFEKLDQITVEEVMLTDIPRLHINDPIMKGFGMVINNGFVCVENDEQVFEGIFTRRVVLKELNKHIRSLNK
